Reference: US20250027068

Molecular target: pooled human IgG

Row | Protein | Enzyme Activity Endpoint Assay: Fab′2 [ng/µL] | Enzyme Activity Endpoint Assay: Fc [ng/µL] | Enzyme Activity Endpoint Assay: IgG [ng/µL] | Enzyme Activity Endpoint Assay: scIgG [ng/µL] | Enzyme Activity Endpoint Assay (purified): Fab′2 [ng/µL] | Enzyme Activity Endpoint Assay (purified): Fc [ng/µL] | Enzyme Activity Endpoint Assay (purified): IgG [ng/µL] | Enzyme Activity Endpoint Assay (purified): scIgG [ng/µL]
1 | PRT-53 (protein) MANQEIRYSEVTPYHVTSVWTKGVTPPANFTQGEDVFHAPYVANQGWYDITKTFNGKDDLLCGAATAGNMLHWWFDQNKDQIDRYLEEHPEKQKINFNGEQMFDVKEAIDTKNDQLDSKLFEYFKEKAFPYLSTKHLGVFPDLVIDMFINGYRLSLTNHGPTPVKEGSKDPRGGIFDAVFTRGDQSKLLTSRHDFKEKNLKEISDLIKKELTEGKALGLSHTYANVRINHVINLWGADFDSNGNLKAIYVTDSDSNASIGMKKYFVGVNSAGKVAISAKEIKEDNIGAQVLGLFTLSTGQDSWNQTN | 7 | 84 | 9 | 61 | – | – | – | –
2 | PRT-4 (protein) MANQEIRYSEVTPYHVTSVWTKGVTPPANFTQGEDVFHAPYVANQGWYDITKTFNGKDDLLCGAATAGNMLHWWFDQNKEQIERYLKEHPEKQKINFNGEQMFDVKEAIDTKDSQLDSKLFEYFKEKAFPYLSTKHLGVFPDHVIDMFINGYRLSLTNHGPTPVKEGSKDPRGGIFDAVFTRGDQSKLLTSRHDFKEKNLKEISDLIKKELTEGKALALSHTYANVRINHVINLWGADFDSNGNLKAIYVTDSDSNASIGMKKYFVGVNSAGKVAISAKEIKEDNIGAQVLGLFTLSTGQDIWNQTN | 21 | 97 | 23 | 42 | – | – | – | –
3 | PRT-60 (protein) MANQEIRYSEVTPYHVTSVWTKGVTPPANFTQGEDVFHAPYVANQGWYDITKTFNGKDDLLCGAATAGNMLHWWFDQNKDQIKRYLEEHPEKAKINFNGEQMFDVKEAIDTKNHQLDSKLFEYFKEKAFPYLSTKHLGVFPDHVIDMFINGYRLSLTNHGPTPVKEGSKDPRGGIFDAVFGRGDQSKLLTSRHDFKEKNLKEISDLIKKELTEGKALGLSHTYANVRINHVINLWGADFDSNGNLKAIYVTDSDSNASIGMKKYFVGVNSAGKVAISAKEIKEDNIGAQVLGLFTLSTGQDSWNQTN | – | – | – | – | 52 | 133 | 16 | 16
4 | PRT-62 (protein) MANQEIRYSEVTPYHVTSVWTKGVTPPANFTQGEDVFHAPYVANQGWYDITKTFNGKDDLLCGAATAGNMLHWWFDQNKDQIKRYLEEHPEKQKINFNGEQMFDVKEAIDTKNHQLDSKLFEYFKEKAFPYLSTKHLGVFPDHVIDMFINGYRLSLTNHGPTPVKEGSKDPRGGIFDAVFGRGDQSKLLTSRHDFKEKNLKEISDLIKKELTEGKALGLSHTYANVRINHVINLWGADFDSNGNLKAIYVTDSDSNASIGMKKYFVGVNSAGKVAISAKEIKEDNIGAQVLGLFTLSTGQDSWNQTN | – | – | – | – | 15 | 94 | 8 | 56
5 | PRT-55 (protein) MANQEIRYSEVTPYHVTSVWTKGVTPPANFTQGEDVFHAPYVANQGWYDITKTFNGKDDLLCGAATAGNMLHWWFDQNKDQIDRYLEEHPEKAKINFNGEQMFDVKEAIDTKNHQLDSKLFEYFKEKAFPYLSTKHLGVFPDLVIDMFINGYRLSLTNHGPTPVKEGSKDPRGGFFDAVFGRGDQSKLLTSRHDFKEKNLKEISDLIKKELTEGKALGLSHTYANVRINHVINLWGADFDSNGNLKAIYVTDSDSNASIGMKKYFVGVNSAGKVAISAKEIKEDNIGAQVLGLFTLSTGQDSWNQTN | – | – | – | – | 0 | 70 | 19 | 57
6 | PRT-54 (protein) MANQEIRYSEVTPYHVTSVWTKGVTPPANFTQGEDVFHAPYVANQGWYDITKTFNGKDDLLCGAATAGNMLHWWFDQNKDQIDRYLEEHPEKQKINFNGEQMFDVKEAIDTKNHQLDSKLFEYFKEKAFPYLSTKHLGVFPDLVIDMFINGYRLSLTNHGPTPVKEGSKDPRGGFFDAVFTRGDQSKLLTSRHDFKEKNLKEISDLIKKELTEGKALGLSHTYANVRINHVINLWGADFDSNGNLKAIYVTDSDSNASIGMKKYFVGVNSAGKVAISAKEIKEDNIGAQVLGLFTLSTGQDSWNQTN | 0 | 24 | 110 | 10 | – | – | – | –
7 | PRT-61 (protein) MANQEIRYSEVTPYHVTSVWTKGVTPPANFTQGEDVFHAPYVANQGWYDINKTFNGKDDLLCGAATAGNMLHWWFDQNKEYIKRYLEEHPEKQKINFNGEQMFDVKEAIDTKNHQLDSKLFEYFKEKAFPYLSTKHLGVFPDHVLDMFINGYRLSLTNHGPTPVKEGSKDPRGGIFDAVFTRGDQSKLLTSRHDFKEKNLKEISDLIKKELTEGKALGLSHTYANVRINHVINLWGADFDSNGNLKAIYVTDSDSNASVGMKKYFVGVNSAGKVAISAKEIKEDNIGAQVLGLFTLSTGQDSWNQTN | – | – | – | – | 0 | 55 | 52 | 50
8 | PRT-59 (protein) MANQEIRYSEVTPYHVTSVWTKGVTPPANFTQGEDVFHAPYVANQGWYDITKTFNGKDDLLCGAATAGNMLHWWFDQNKDQIKRYLEEHPEKQKINFNGEQMFDVKEAIDTKNHQLDSKLFEYFKEKAFPYLSTKHLGVFPDHVIDMFINGYRLSLTNHGPTPVKEGSKDPRGGFFDAVFTRGDQSKLLTSRHDFKEKNLKEISDLIKKELTEGKALGLSHTYANVRINHVINLWGADFDSNGNLKAIYVTDSDSNASIGMKKYFVGVNSAGKVAISAKEIKEDNIGAQVLGLFTLSTGQDSWNQTN | – | – | – | – | 6 | 70 | 8 | 56
9 | PRT-52 (protein) MANQEIRYSEVTPYHVTSVWTKGVTPPANFTQGEDVFHAPYVANQGWYDINKTFNGGDDLLCGAATAGNMLHWWFDQNKEYIDRYLKEHPEKQKINFNGEQMFDVKEAIDTKNSQTDSKLFEYFKEKAFPYLSTKHLGVFPDLVIDMFINGYRLSLTNHGPTPVKEGSKDPRGGFFDAVFTRGDQSKLLTSRHDFKEKNYNEISDLIKKELKEGKALGLSHTYANVRINHVINLWGADFDSNGNLKAIYVTDSDSNASVGMKKYFVGVNSAGKVAISAKEIKEDNIGAQVLGLFTLSTGQDSWNQTN | 0 | 12 | 122 | 0 | – | – | – | –
10 | PRT-51 (protein) MANQEIRYSEVTPYHVTSVWTKGVTPPANFTQGEDVFHAPYVANQGWYDINKTFNGKDDLLCGAATAGNMLHWWFDQNKDYIDRYLKKHPEKAKINFNGEQMFDVKEAIDTKNDQLDSKLFEYFKEKAFPYLSTKHLGVFPDLVLDMFINGYRLSLTNHGPTPVKEGSKDPRGGFFDDVFTRGDQSKLLTSRHDFKEKNLEEISDLIKKELTEGKALGLSHTYANVRINHVINLWGADFDENGNLKAIYVTDSDSNASIGMKRYFVGVNSAGKVAISAKEIKEDNIGAQVLGLFTLSTGQDSWNQTN | 0 | 11 | 118 | 0 | – | – | – | –
11 | PRT-57 (protein) MANQEIRYSEVTPYHVTSVWTKGVTPPANFTQGEDVFHAPYVANQGWYDINKTFNGKDDLLCGAATAGNMLHWWFDQNKDYIDRYLEEHPEKQKINFNGEQMFDVKEAIDTKNHQLDSKLFEYFKEKAFPYLSTKHLGVFPDLVIDMFINGYRLSLTNHGPTPVKEGSKDPRGGFFDAVFGRGDQSKLLTSRHDFKEKNLKEISDLIKKELTEGKALGLSHTYANVRINHVINLWGADFDSNGNLKAIYVTDSDSNASIGMKKYFVGVNSAGKVAISAKEIKEDNIGAQVLGLFTLSTGQDSWNQTN | – | – | – | – | 0 | 52 | 44 | 55
12 | PRT-58 (protein) MANQEIRYSEVTPYHVTSVWTKGVTPPANFTQGEDVFHAPYVANQGWYDINKTFNGKDDLLCGAATAGNMLHWWFDQNKEYIDRYLKEHPEKQKINFNGEQMFDVKEAIDTKNHQLDSKLFEYFKEKAFPYLSTKHLGVFPDLVLDMFINGYRLSLTNHGPTPVKEGSKDPRGGFFDDVFTRGDQSKLLTSRHDFKEKNLKEISDLIKKELTEGKALGLSHTYANVRINHVINLWGADFDSNGNLKAIYVTDSDSNASIGMKKYFVGVNSAGKVAISAKEIKEDNIGAQVLGLFTLSTGQDSWNQTN | – | – | – | – | 0 | 9 | 125 | 1
13 | PRT-56 (protein) MANQEIRYSEVTPYHVTSVWTKGVTPPANFTQGEDVFHAPYVANQGWYDINKTFNGKDDLLCGAATAGNMLHWWFDQNKEYIDRYLEEHPEKQKINFNGEQMFDVKEAIDTKNHQLDSKLFEYFKEKAFPYLSTKHLGVFPDLVLDMFINGYRLSLTNHGPTPVKEGSKDPRGGFFDAVFTRGDQSKLLTSRHDFKEKNLKEISDLIKKELTEGKALGLSHTYANVRINHVINLWGADFDSNGNLKAIYVTDSDSNASVGMKKYFVGVNSAGKVAISAKEIKEDNIGAQVLGLFTLSTGQDSWNQTN | – | – | – | – | 0 | 13 | 125 | 3
14 | PRT-3 (protein) MRNATEAYAKEVPHQITSVWTKGVTPLTPEQFRYNNEDVIHAPYLAHQGWYDITKAFDGKDNLLCGAATAGNMLHWWFDQNKTEIEAYLSKHPEKQKIIFNNQELFDLKAAIDTKDSQTNSQLFNYFRDKAFPNLSARQLGVMPDLVLDMFINGYYLNVFKTQSTDVNRPYQDKDKRGGIFDAVFTRGDQTTLLTARHDLKNKGLNDISTIIKQELTEGRALALSHTYANVSISHVINLWGADFNAEGNLEAIYVTDSDANASIGMKKYFVGINAHGHVAISAKKIEGENIGAQVLGLFTLSSGKDIWQKLS | 14 | 72 | 11 | 33 | – | – | – | –
